Data: the nanobody polyreactivity screen of Harvey et al. (2022)

assay: yeast display, Sf9 membrane polyspecificity reagent, FACS + sequencing; frameworks hold sequencing errors
Procedure, shortened: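 A nanobody's polyreactivity label depends on the gate it was sorted from. Yeast display cells were stained with 10% biotinylated, detergent-solubilized Sf9 membrane reagent for 1 hour at 4 °C, enriched on streptavidin microbeads and sorted by FACS. The low and high (top ~1%) gates were set on anti-HA fluorescence for expression and streptavidin fluorescence for reagent binding.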

Row | Sequence | polyreactivity (PSR sort gate)
1 | QVQLVESGGGLVQAGGSLRLSCAASGRTFRYNAMGWYRQAPGKERELVAGITYNGGSTSYADSVKGRFTISRDNAKNTVYLQMNSLKPEDTAVYYCNVVYNYYGRFGSWGQGTQVTVSS | high polyreactivity
2 | QVQLVESGRGLVQAGGSLRLSCAASGFIFRDYAMGLYRQAPGKVRELVAAISSRGGGTSYADSVKGRFTITRDNAKNTVYLQMNSLKPEDTAVYYCNKGYGRYVVTAYDYWGQGTQVTVSS | high polyreactivity
3 | QVQLVESGGGLVQAGASLRLSCAASGRIFNGYAMGWYRQAPWKERELVATIRYRGDNTYYADSVKGRFTISRDNAKNTVYLQMNSLKPEDTAVYYCNARVWYTSTSSWAKRYNYWGQGTQVTVSS | high polyreactivity
4 | QVQLVESGGGLVQAGGSLRISCAASGSTYYTNTMGWYRQAPGKERELVADINGSGGSTYYADSVKGRITISRDNAKNTVYLQMNSLKPEDTAVYYCAAGSLQVAIRYDYWGQGTQVTVSS | low polyreactivity
5 | QVQLVESGGGLVKAGGILRLSCAASGFNFSSYAMGWYIPAPGKERELVAAISGSGGTTYYADSVKGRFTISRDNAKNTVYLQLNSLKPEDTAVYYCATRLGLVITKYGYDYWGQGTQVTVSS | high polyreactivity
6 | QVQLVESGGGLVQAGGSLRLSCAASGSIFYSYAMGWYRQAPGKERELVASINWSGASTYYADSVKGRFTISRDYAKNTVYLQMNSLKPEDTAVYYCAADWWGYDGRYDYWGQGTQVTVSS | high polyreactivity
7 | QVQLVESGGGLVQAGGSLRLSCAASGFIFAYYAMGWYRQAPGKERELVAAITNSGGSTYYADSVKGRFTISRDNAKNTVYLQMNSLKPEDTAVYYCAAVIRPRYYQVRPRYDYWGQGTQVTVSS | low polyreactivity
8 | QVQLVESGGGLVQAGGSLRLSCAASGSILYPTAMGWYTQAPGKEREFVAGITSSGSTYYADSVKGRFTISRDNAKNTVDDQMNSLKPDDTAVYYCATSVYRTYGNSVHRMNYWGQGTQVTVSS | high polyreactivity
9 | QLQLVDSGGGLVQAGGSLRLSCAASGRTFRIYAMGWYRKAPGKERELVASITGGGTTNYADSVKGRFTISRDNAKYTVYLQMNSLKPEDTAVYYCAARSRTRPNVPGYGYWGQGTQVTVSS | high polyreactivity
10 | QVQLVESVGGLVQAGGSLRLSCAASGRISNDYAMGWYRQAPGKERELVATITFSGGDTYYADSVKGRFTISRDNAKNTVYLQMNSLKPEETAVYYCAASKWRSYSGVWWRLLFDYWGQGTQVTVSS | low polyreactivity
11 | QVQLVESGGGLVQAGGSLRLSCAASVSIFGSNAMRWYRQAPGKERELVAVITNGGRTYYADSVKGRFTISRDNAKNTVFLQMNSLKPEDTAVYYCAASRVYGWYGSYSTYGSWGQGTQVTVSS | high polyreactivity
12 | QVQLVESGGGLVQAGGSLRLSCAASGFILDYNTMGWYRQAPGNERELVAAISSSGDTTYYADSVKGRFTISRDNAKNTVYLQMNSLKPEDTAVYYCAREYGDGYEYWGQGTQVTVSS | low polyreactivity
13 | QVQLVESGGGLVQAGGSLRLSCAASGYTFTGYAMGWYRQAPGKERELVAAITSIGGSTYYADSVKGRFTISRDNAKNTVYLQMNSLKPEDTAVYYCAAEGDYVYDMDYWGQGTQVTVSS | low polyreactivity
14 | QVQLLESGGGLVQAGGSLPVSCAASGSTFDTNDMVWYRQAPGKERELVAAISSGGDYADSVKGRFTISRDNAKNTVYLQMNSLKPEDTAVYYCAKDDTKWGQGTQVTVSS | low polyreactivity
15 | QVQHVESGGGLVQAGGSLRLSCAASVSIFSPNDMGCYRQAPGKERELVAAITSAGSTYYADSVKGRFTISRDNAKNSVYLQMNSLKPEDTAVYYCAASYISVTDYAYFPLWYGYWGQGTQVTVSS | low polyreactivity
16 | QVQLVESGGGLVQAGGSLRLICAASGRTFVPNVMGWYRQAPGKERELVAAITSGGSTYYADSVKGRFTISRDNAKNTVYLQMNSLKPEDTAVYYCAKRTSWKYGYWGQGTQVTVSS | high polyreactivity
17 | QVQLVESGAGLVQAGGSLRLSCAASGFTFNYYAMGWYRQAPGKERELVATITTSGGITYYADSVKGRFTISRDNAKNTVYLQMNSLKPEDTAVYYCAAGSYSRYLYSLYFDFDYWGQGTQVTVSS | low polyreactivity
18 | QVQRVESGGGIVQAGGSHRLSCAASGSIFRYYAMGWYRQAPGKEREFVAAISSSGGSTYYADSVKGRFTISRDNAKNTVYLQMNSLKPEDTAVYYCARDWPSYYARQYDYWGQGTQVTVSS | high polyreactivity
19 | QVQLVESGGGLVQAGGSLRLSCASSGYIFEKYAMGWYRQAPGKERELVAAITVTGASTYYADSVKGRFTISRDNAKNTVYLQMNSMNPEDTAVYYCAAKTLSVGYVDPDYGRDYWGQGTQVTVSS | low polyreactivity
20 | QVQLVESGGGLVQAGGSLRLSCAASGSTLRGYAMGWYRQAPGKEMELVAAITRSGGSTYYADSVKGRFTISRDNAKNTVYLQMNSLKPEDTAVYYCNARAFPYYRRFDYWGQGTQVTVSS | high polyreactivity
21 | QVQLVESGGGLVQAGGSLRLSCAASGSTFNAYAMGWNRQAPGKERELVAVISSSGGRTYYADSVKGRFTISRDNAKNTVYLQMNSLKPEDTAVYYCNADVKYRYNHWGQGTQVTVSS | high polyreactivity

Row | Sequence | polyreactivity (PSR sort gate)
22 | QVQLVESGGGLVQAGGSLRLSCAASGITYWKYAMGWYRQAPGKERELVAAISKSGGSTYYADSVKGRFTISRDNAKNTVYLQMNSLKPEDTAVYYCAAVPGPASKYGYWGQGTQVTVSS | high polyreactivity
23 | QVQLVESGGGLVQAGGSLRLSCAASGRIFFYNAMGWYRQAPGKERELVATINWSGGSTYYADSVKGRFTISRDYAKNTVYLQMNSLKPEDTAVYYCNALRASTTALWGGYWGQGTQVTVSS | high polyreactivity
24 | QVQLVESGGGLVQAGGSLRLSCAASGRTFFKIAMGWYRQAPGKERELVASISSRSGTTYYADSVKGRFTISRDNAKNTVYLQMNSLKPEDTAVYYCAASRNRYSYGYWGQGTQVTVSS | high polyreactivity
25 | QVQLVESGRGLVQAGGSLRLSCAASGSTFYANTMGWYRQAPGKERELVAAISQSGGSTYYADSVKGRFTISRDNAKNTVYLQMNSLKPEDTAVYYCAARRLPRKERKLYYWGQGTQVTVSS | high polyreactivity
26 | QVQLVESGGGLVQAGGSLRLSCAASGTFVTYMGWYRQAPGKERELVAVISASGDSVKGRFTISRDNAKNTVYLQMNSLNPEDTAVYYCARELYRRVWHHWAYWAAYDYWGQGTQVTVSS | low polyreactivity
27 | QVQLVESVGGLVQAGGSLRLSCAASGSIFITYAMGWYRQAPGKVRELVAAIRDSGDRTYYADSVKGRFTISRDNAKNTVYLQMNSLKPEDTAVYYCNARWQEPLKYDYWGQGTQVTVSS | low polyreactivity
28 | QVQLVESGGGLVQAGGSLRLSCAASGSTFRSNVMGWYRQAPGKAREFVAAITSSSATTYYADSVKGRFTISRDNAKNTVYLQMNSLKPEDTAVYYCAAGGRKAGPAGGQYYYWGQGTQVTVSS | low polyreactivity
29 | QVQLVESGGGLVQAGGSLRLSCACSGSTFRWYTMGWYRQAPGKECELVAAISISGTSTYYADSVNGRFTISRDNAKNTVYLQMNSLTPEDTAVYYCAADPPSRWGDYWGQGTQVTVSS | high polyreactivity
30 | QVHLVESGGGLVQAGGSLRLSCAASGFTFVRNAMGWYRQAPGKERELVAAISGSGGSTYYADSVKGRFTISRDTAKNTVYLQMNSLKPEDTAVYYCAAGWTRGWSLDYYYWGQGTQVTVSS | high polyreactivity
31 | QVQLVESGGGLVQAGGSLRLSCADSGRIFRGNGMGWSRQAPGKEREFVDAISRGDGNTYYADSVKGRFTISRDNAKNTVYLQMNSLKPEDTAVYSCAAGGYGYYDFPQYNYWGQGTQVTVSS | low polyreactivity
32 | QVQLVESGGGLVQAGGSLRLSCAASGRTFRTNTMGWYRQAPGKERELVAAIRYIGGSTYYADSVKGRFTISRDNAKNTVYLQMNSLKPEDTAVYYCAAYRYGSRYGYEYWGQGTQVTVSS | high polyreactivity
33 | QVLLVESGGGLVQAGGSLRLSCAASGLTFRYYAMGWYRQAPGKERELVAAITSGGSTYYADSVKGRFTISRDNAKNTVYLQMNSLKPEDTAVYYCNKLLGRTVRHDYWGQGTQVTVSS | high polyreactivity
34 | QVHLVESGGGLVQAAGILRLSSAPSGSIFPYYAMGWYRQAPGKEREFVAAINYAGGSTYYADSVKGRFTISRDNAKNTVYLQMNSLKPEDTAVYYCNARTFGPNGKHRYGYWGQGTQVTVSS | high polyreactivity
35 | QVQLVESGGGLVQAGGSLLLSCAASGSTFVVNAMAWYRQAPGKERELVAAIRNSGSTTYADSVKGRFTISRDNAKNTVYLQMNSLKPEDTAVYYCATDISATVTAVQINPYDYWGQGSQVTVSS | low polyreactivity
36 | QVQLVESGGGLVQAGGSLRLSCAASGYIFNYAMGWYRQAPGKERQLVAAISRRGGSTYYADSVKGRFTISRDNAKNTVYLQMISLKPEDTAVYYCADRLPGYYGIGDYWGQGSQVTVSS | high polyreactivity
37 | QVQLVESGGGLVQAGGSLRLSCAASGLIFYYYAMGWYRQAPGKERELVAAITWTAGSTSYADSVKGRFTISRDNAKNTVYLQMNSLKPEDTAVYYCAADYRHDTFSNEYDYWGQGTQVTVSS | low polyreactivity
38 | QVQLVESGGGLVQAGGSLRLSCAASGIIFYVNAMGWYRQAPGKERELVAVISRRGGSTNYADSVKGRFTISRDNAKNTVYLQMNSLKPEDTAVYYCAAGYRTAYRGSSYYYWGQGTQVTVSS | high polyreactivity
39 | QVQLVESGGGLVQAGGSLRLTCAASGSIFSYNAKGRYRQAPGKERELVAGITTGDSTNYADSVKGRFTISRDNAKNTVYLQMNCLKPEDTAVYYCAATRLVSYHYPDLDSQQGGYWGQGTQVTVSS | low polyreactivity
40 | QVQLVESGGGLVQAGGSLRLSCAASGSIFSSNAMGWYRQAPGKDRELVASISWTGGNTYADSVKGRFTISRDNAKNTVYLQMNSLKPEDTAVYYCNAGRSWDYWYGYDYWGQGTQVTVSS | low polyreactivity
41 | QVQLVESGGGLVQAGGSLRLSCAASGLTFSSYAMGWYRQAPGKERELVAVISRTGGSTYYADSVKGRFTISRDNAKNTVYLQMNSLKPEDTAVYYCAARSYNGWRYDSWGQGTQVTVSS | high polyreactivity
